Source: paper PMC4650419 (Cell Research, 2015)
Substitutions are numbered along the chain they refer to.

B1: mouse monoclonal antibody 4C2 (IgG1) (antibody, V domains shown)
VH: DVKLVESGGGLVKPGGSLKLSCAASGFTFSSYTMSWVRQTPEKRLEWVATISSGGSYTYYPDSVKGRFTISRDNAKNTLYLQMSSLKSEDTAMYYCTRDGNDYDYWGQGTTLTVSS
VL: DIQMTQTTSSLSASLGDRVTISCRASQDISNYLNWYQQKPDGTVKLLIYYTSRLHSGVPSRFSGSGSGTDYSLTISNLEQEDIATYFCQQGNTLPRTFGGGTKLEIK
B2: humanized 4C2 (4C2h), full-length antibody (antibody, V domains shown)
VH: B1 VH with D1Q, K3Q, V5Q, E42D, T97A, T111M, L112V
VL: DIQLTQSPSSLSASIGDRVTITCQASQDISNYLNWYQQRPGQAPKLLIYYTSRLHSGVPSRFSGRGSGTSFTIAINSFQAEDIGTYFCQQGNTLPRTFGGGTRVEIK
B3: mouse monoclonal antibody 2E6 (IgG1) (antibody, V domains shown)
VH: QVQLKGSGPGLVAPSQSLSITCTVSGFSLTGYGVNWVRQPPGKGLEWLGMIWGDGSTDYNSALKSRLSISKDNSKSQVFLKMNSLQTDDTARYYCARVGDYGDYFDYWGQGTTLTVSS
VL: DIQMTQSPASLSASVGETVTITCRASENIYSYLAWYQQKQGKSPQLLVYNAKTLAEGVPSRFSGSGSGTQFSLKINSLQPEDFGSYYCQHHYGTPWFGGGTKLEIK

These binders were tested against MERS-CoV spike receptor-binding domain (spike residues 367-606), hexa-His tagged (MERS-CoV, isolate EMC/2012 (GenBank …)) (assay: SPR).

| Binder | Kd [nM] |
| --- | --- |
| B1 | 162 |
| B2 | ~217 |
| B3 | 60.3 |
